# Data published in patent US20190284243A1, “BINDING PEPTIDES” (University of Copenhagen, priority 2016, published 2019).
# Bridge positions count the residues as written; N and C are the ends. Square brackets hold non-standard residues; d marks the D form. Ends that are not written are not given here. Aha = [N-]=[N+]=NCC[C@H](N)C(=O)O; Pra = C#CC[C@H](N)C(=O)O
# Assays:
# [1] = biological target: T1, glycine receptor binding site of gephyrin (peptide binding site) (Homo sapiens, UniProt Q9NQX3); test: Affinity of β-bodies to the gephyrin peptide binding site; conditions: compared with original peptide SEQ ID NO: 41
# T1 sequence (Q9NQX3 1-736): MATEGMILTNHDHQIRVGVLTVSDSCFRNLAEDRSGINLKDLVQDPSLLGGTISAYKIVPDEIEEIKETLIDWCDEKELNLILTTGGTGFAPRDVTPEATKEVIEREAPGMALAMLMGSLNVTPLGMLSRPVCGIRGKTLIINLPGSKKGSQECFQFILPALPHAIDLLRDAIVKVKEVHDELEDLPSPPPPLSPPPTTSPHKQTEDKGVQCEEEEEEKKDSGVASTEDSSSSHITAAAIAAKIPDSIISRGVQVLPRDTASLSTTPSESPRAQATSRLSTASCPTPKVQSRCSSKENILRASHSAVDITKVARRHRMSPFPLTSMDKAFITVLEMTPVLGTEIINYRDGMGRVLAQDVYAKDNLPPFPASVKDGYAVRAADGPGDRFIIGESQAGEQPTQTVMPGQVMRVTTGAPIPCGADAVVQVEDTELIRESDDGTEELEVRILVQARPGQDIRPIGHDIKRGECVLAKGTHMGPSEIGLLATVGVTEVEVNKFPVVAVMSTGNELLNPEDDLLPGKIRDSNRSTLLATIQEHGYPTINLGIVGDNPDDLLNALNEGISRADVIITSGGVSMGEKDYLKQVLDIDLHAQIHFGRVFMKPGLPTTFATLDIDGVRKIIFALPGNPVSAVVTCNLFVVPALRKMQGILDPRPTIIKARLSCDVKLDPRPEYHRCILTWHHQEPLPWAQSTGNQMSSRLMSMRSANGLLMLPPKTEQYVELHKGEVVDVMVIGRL
# Method: The following β-body TTVTGTLYPGTLLGFETT (SEQ ID NO: 41) underwent optimization via alanine scanning. The resulting 9 β-bodies were tested for their affinity to the glycine receptor binding site of gephyrin (peptide binding site). The affinity of the original peptide could be improved and optimized β-bodies were found having the following sequences CTVTGTLYPGTLLGFETC (SEQ ID NO: 42) and TTVTGTLYPGTLLGAATT (SEQ ID NO: 43).
# Il1 [2] = test: Binding of β-bodies with the target compound (Table 1), Il1; conditions: Purpose Il1; tested for binding with the target compound
# GFP = GFP 60 nM, both bead types incubated at the same time
# Method: GFP (60 nM) was incubated with different β-body beads at the same time, a first type of β-body beads specific for GFP (β-body SEQ ID NO: 1;
# […]) and a second type of β-body beads specific for IL1 (β-body SEQ ID NO: 5).
# Interleukin 1 = test: Sandwich binding assay on PEGA beads, IL1 model
# From the text: (§1) For sandwich assays β-bodies identified as described in Examples 1 and 2 were synthesized by standard Fmoc-based solid phase peptide synthesis on biocompatible PEGA-beads (e.g. PEGA1900 which has a porosity allowing penetration of proteins up to 70 kDa). PEGA beads are available from Sigma Aldrich.
# The intensity of the fluorescence is a measure of the concentration of IL1 and the affinity of the interaction.
# Il1 [3] = test: Selectivity assay GFP vs. IL1: beads incubated with ROX-IL1; format: binding; conditions: ROX-IL1 100 nM, both bead types incubated at the same time
# From the text: The same experiment was repeated with IL1.
# interleukin 6 = interleukin 6 (Homo sapiens, UniProt P05231); test: Sandwich binding assay on PEGA beads, IL6 model
# Method: as §1
# The sandwich binding assay was performed as follows: two beads with ligand E prepared as described above were contained in separate wells and were added to 50 μL MilliQ water in a microtiter well containing 100 nM of the peptide F. […]
# The beads were washed twice with PBS to improve signal to noise. The well was imaged with an ICX73 fluorescence microscope (Olympus) using a ROX filter cube.
# POI = test: Screening of OBOC β-body library with AMC-labelled POI; format: binding; conditions: POI 10 nM, 2 h incubation; site of interaction not determined
# Method: The library of K(TX)4PG(XT)4EG was synthesized on HMBA-PEGA1900 resin by the split—mix method essentially as described in Christensen et al, 2003 and was deprotected with 95% TFA. The POI was dissolved in phosphate buffer at pH 7.5, labeled with aminomethylcoumarin using AMC-(CH2)3—CO—OSu (4 eqv, 30 min) and purified by FPLC. […] The protein was dissolved at 100 nM concentration and the library was incubated for 2 h with this solution at 10 fold dilution (10 nM). The library was inspected under a ICX73 fluorescence microscope using a […]. Beads with strong AMC-fluorescence were collected in separate Eppendorph tubes using a microsyringe. The beads were washed and 5% triethylamine in water was added. After incubation overnight the supernatant was transferred to another eppendorph tube and the bead was washed with 70% acetonitril/water. The combined solutions were concentrated to dryness twice using a speedvacc and the residue dissolved in 50% acetonitrile/water. […] The site of interaction on the POI was not determined.
# Interleukin 2 = Interleukin 2 (Homo sapiens, UniProt P60568); test: Sandwich binding assay on PEGA beads, IL2 model
# Method: as §1
# The sandwich binding assay was performed as follows: four beads with ligand C prepared as described above were added to 50 μL MilliQ water in a microtiter well containing 100 nM of the peptide D. The well was imaged with an ICX73 fluorescence microscope (Olympus) using a ROX filter cube.
# The intensity of the fluorescence is a measure of the concentration of IL2 and the affinity of the interaction. The result obtained after 3 min. incubation is shown in FIG. 10 and after 20 min. incubation in FIG. 1D.
# Il2 = Il2 (Homo sapiens, UniProt P60568); test: Binding of β-bodies with the target compound (Table 1), Il2; conditions: Purpose Il2; tested for binding with the target compound
# Gephyrin = biological target: T2, Gephyrin (Homo sapiens, UniProt Q9NQX3); test: Binding of β-bodies with the target compound (Table 1), Gephyrin; conditions: Purpose Gephyrin; tested for binding with the target compound
# T2 sequence (Q9NQX3 1-736): T1 sequence (Q9NQX3 1-736)
# Beads modified with (2) = test: Fluorescent β-bodies incubated with beads modified with (2); format: binding; conditions: for Kd: bead-(2) with fluorescent β-body; for Binding of fluorescent β-body to beads modified with (2): FIG. 8
# Method: (§2) A fluorescent probe was attached to (1), (2) AND (3). The fluorescent β-bodies were then incubated with: • Beads modified with NHAc; or • Beads modified with (1); or • Beads modified with (2).
# Beads modified with (1) = test: Fluorescent β-bodies incubated with beads modified with (1); format: binding; conditions: FIG. 8
# Method: as §2
# [4] = ligand 1 beads + 100 nM ligand 2, Interleukin 1 50 nM, 20 min
# [5] = ligand 1 beads + 100 nM ligand 2, without IL1 (interaction between the two β-bodies)
# Chain of interleukin 6 (P05231 30-212, species assumed): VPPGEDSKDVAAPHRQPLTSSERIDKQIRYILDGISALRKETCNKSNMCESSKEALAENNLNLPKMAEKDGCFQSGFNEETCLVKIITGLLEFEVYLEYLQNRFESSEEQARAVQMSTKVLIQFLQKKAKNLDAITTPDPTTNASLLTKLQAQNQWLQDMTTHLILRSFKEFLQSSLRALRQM
# Chain of Interleukin 2 (P60568 21-153, species assumed): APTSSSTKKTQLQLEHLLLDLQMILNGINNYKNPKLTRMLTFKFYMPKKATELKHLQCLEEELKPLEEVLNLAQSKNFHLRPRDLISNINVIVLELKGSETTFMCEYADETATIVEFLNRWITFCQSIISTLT
# Chain of Il2 (P60568 21-153, species assumed): as above
substance,measurement,setting,value
Abu(N3)-TVTGTLYPGTLLGFET-Pra ([Aha]TVTGTLYPGTLLGFET[Pra]; triazole 1-18 (inferred)) [SEQ ID NO: 44],affinity to the glycine receptor binding site of gephyrin,[1],unchanged
CTVTGTLYPGTLLGFETC (Designed peptide) [SEQ ID NO: 42],affinity to the glycine receptor binding site of gephyrin,[1],improved
EPraDTYTETYPGRTITWTIAbu(N3)DG (E[Pra]DTYTETYPGRTITWTI[Aha]DG; triazole 2-19 (inferred)) [SEQ ID NO: 9],Binding,Il1 [2],High
ETDTYTETYPGYTSTWTITD (Designed peptide) [SEQ ID NO: 5],Binding of β-body beads to GFP,GFP,only β-body beads specific for GFP underwent binding
same,ROX fluorescence accumulation in the beads,Interleukin 1; [4],positive signal
same,ROX fluorescence accumulation in the beads,"Interleukin 1; ligand 1 beads + 100 nM ligand 2, Interleukin 1 50 nM, 20 min, listed as A",accumulation of significant ROX fluorescence
same,ROX fluorescence accumulation in the beads,Interleukin 1; [5],no signal
same,ROX fluorescence accumulation in the beads,"Interleukin 1; ligand 1 beads + 100 nM ligand 2, without IL1 (interaction between the two β-bodies), listed as A",No fluorescence accumulation over background
same,Binding of β-body beads to IL1,Il1 [3],underwent binding
HTWTDTLTRPGYTVTHTLTL (Designed peptide) [SEQ ID NO: 17],ROX fluorescence accumulation in the bead,"interleukin 6; ligand 5 bead + 100 nM ligand 6, interleukin 6 20 nM, 20 min, listed as E",accumulation of significant ROX fluorescence
same,ROX fluorescence accumulation in the bead,"interleukin 6; ligand 5 bead + 100 nM ligand 6, interleukin 6 20 nM, 20 min, listed as ligand 5",positive signal
same,ROX fluorescence accumulation in the bead,"interleukin 6; ligand 5 bead + 100 nM ligand 6, without IL6 (interaction between the two β-bodies), listed as E",No fluorescence accumulation over background
same,ROX fluorescence accumulation in the bead,"interleukin 6; ligand 5 bead + 100 nM ligand 6, without IL6 (interaction between the two β-bodies), listed as ligand 5",no signal
KTGTQNLTGPGRTHTQTATEG (Designed peptide; PEPTIDE (1)..(21) GFP) [SEQ ID NO: 3],Binding of library beads to AMC-labelled POI (AMC-fluorescence),POI,strong binding
KTQTYNGTGPGRTGTVTYTEG (Designed peptide) [SEQ ID NO: 55],Binding of library beads to AMC-labelled POI (AMC-fluorescence),POI,strong binding
KTYTYNYTGPGRTSTATLTEG (Designed peptide) [SEQ ID NO: 56],Binding of library beads to AMC-labelled POI (AMC-fluorescence),POI,strong binding
NTVTNTMTRPGVTETVTQTD (Designed peptide) [SEQ ID NO: 15],ROX fluorescence accumulation in the beads,"Interleukin 2; ligand 3 beads + 100 nM ligand 4, Interleukin 2 50 nM, 3 and 20 min",positive signal
same,ROX fluorescence accumulation in the beads,"Interleukin 2; ligand 3 beads + 100 nM ligand 4, Interleukin 2 50 nM, 3 and 20 min, listed as C",accumulation of significant ROX fluorescence
same,ROX fluorescence accumulation in the beads,"Interleukin 2; ligand 3 beads + 100 nM ligand 4, without IL2 (interaction between the two β-bodies)",no signal
same,ROX fluorescence accumulation in the beads,"Interleukin 2; ligand 3 beads + 100 nM ligand 4, without IL2 (interaction between the two β-bodies), listed as C",No fluorescence accumulation over background
same,Binding,Il2,High
Pra-ITKTARYTMPGKTLTKTGTL-Abu(N3)-G ([Pra]ITKTARYTMPGKTLTKTGTL[Aha]G; triazole 1-22 (inferred)) [SEQ ID NO: 46],Binding,Gephyrin,Medium
Pra-TVTGTLYPGTLLGFET-Abu(N3) ([Pra]TVTGTLYPGTLLGFET[Aha]; triazole 1-18 (inferred)) [SEQ ID NO: 34],affinity to the glycine receptor binding site of gephyrin,[1],unchanged
Pra-YTYTDTTPGVTRTLTWG-Abu(N3)-OH ([Pra]YTYTDTTPGVTRTLTWG[Aha]-OH; triazole 1-19 (inferred)) [SEQ ID NO: 38],Binding,Gephyrin,Medium
PraTWTLTHTPGTMEITET-Abu(N3)-OH ([Pra]TWTLTHTPGTMEITET[Aha]-OH; triazole 1-18 (inferred)) [SEQ ID NO: 39],Binding,Gephyrin,Medium
TFTFTFPGLTRTHT [SEQ ID NO: 59],Kd,Beads modified with (2),5000 nM
TITKTARYTMPGKTLTKTGTLTG (Designed peptide) [SEQ ID NO: 45],Binding,Gephyrin,Medium
TKTDRVTEPGRTMTFTGT (Designed peptide) [SEQ ID NO: 7],ROX fluorescence accumulation in the beads,Interleukin 1; [4],positive signal
same,ROX fluorescence accumulation in the beads,"Interleukin 1; ligand 1 beads + 100 nM ligand 2, Interleukin 1 50 nM, 20 min, listed as B",accumulation of significant ROX fluorescence
same,ROX fluorescence accumulation in the beads,Interleukin 1; [5],no signal
same,ROX fluorescence accumulation in the beads,"Interleukin 1; ligand 1 beads + 100 nM ligand 2, without IL1 (interaction between the two β-bodies), listed as B",No fluorescence accumulation over background
TMTDTDTYPGFTDTLTHA (Designed peptide) [SEQ ID NO: 16],ROX fluorescence accumulation in the bead,"interleukin 6; ligand 5 bead + 100 nM ligand 6, interleukin 6 20 nM, 20 min",positive signal
same,ROX fluorescence accumulation in the bead,"interleukin 6; ligand 5 bead + 100 nM ligand 6, interleukin 6 20 nM, 20 min, listed as F",accumulation of significant ROX fluorescence
same,ROX fluorescence accumulation in the bead,"interleukin 6; ligand 5 bead + 100 nM ligand 6, without IL6 (interaction between the two β-bodies)",no signal
same,ROX fluorescence accumulation in the bead,"interleukin 6; ligand 5 bead + 100 nM ligand 6, without IL6 (interaction between the two β-bodies), listed as F",No fluorescence accumulation over background
TTVTGTLYPGTLLGAATT (Designed peptide) [SEQ ID NO: 43],affinity to the glycine receptor binding site of gephyrin,[1],improved
TTYTYPGDTFTI (Designed peptide) [SEQ ID NO: 58],Binding of fluorescent β-body to beads modified with (1),Beads modified with (1),best bind
same,Binding of fluorescent β-body to beads modified with (2),Beads modified with (2),high affinity
TWTETYTWTEPGDTQTLTITNT (Designed peptide) [SEQ ID NO: 11],Binding,Il1 [2],High
TYTYTYPGLTRTHT [SEQ ID NO: 57],Binding of fluorescent β-body to beads modified with (1),Beads modified with (1),high affinity
same,Binding of fluorescent β-body to beads modified with (2),Beads modified with (2),best bind
same,Kd,Beads modified with (2),700 nM
